The results in this text go back to paper PMC7697860.

The target of experiment [1] is PfPV1 with Strep-tag at the C-terminus (PfPV1-Strep) (Plasmodium falciparum 3D7). Nature of the experiment: native gel or EMSA. A general note: Mobility shift assays separate free from complexed probe on a gel.
Experiment [2] shares this target. Nature of the experiment: […] (pH 6.8), 200 mM NaCl, 0.5 mL/min.
Experiment [3] has the same target. As to the kind of experiment: negative-stain electron microscopy with 2D classification.
Experiment [4] shares this target. As to the kind of experiment: AUC.

Values joined by “and” are separate entries in the source; they are usually repeats but may differ in a detail not shown here. Identical values can stand only once.

In experiment [1], “PfPV1 with Strep-tag at the C-terminus (PfPV1-Strep) (natural protein)” displayed a stoichiometry N of 3. For the same substance, the stoichiometry N in experiment [2] is 4 and 3. The substance further displayed a stoichiometry N in experiment [3] of 4. Moreover, in experiment [4], the stoichiometry N is 4 and 3 and 2; the weight fraction w of the component assigned to the tetramer (A4, 222 kDa) is 24%; the weight fraction w of the component assigned to the tetramer (B3, 215 kDa) stood at 17.5%; the weight fraction w of the component assigned to the trimer (A3, 139 kDa) came to 6.8%. The weight fraction w of the component assigned to the trimer (B2, 141 kDa) in experiment [4] is 48.1%.

In general, stoichiometry N refers to the number of molecules, sites or subunits per partner or assembly.
